# Measured values: the DeepSol protein solubility set
# Test: soluble on expression in E. coli; label from the status in PepcDB or PDB records
row,Sequence,soluble on expression in E. coli
1,MSLPRLGIILHGVTGRMGYNQHLVRSILAIRDRGGITLQSGERLEIDPIIVGRNRDKMEQLAKRHDIARWSTDLDAALADPNDQIFFDAGTTLMRAELIGRALDAGKHVYCEKPISDDLRTAVKLARKARASGLKHGVVQDKLFLPGLRKLALLRDSGFFGKILSVRGEFGYWVFEGDWGVPAQRPSWNYRKKDGGGIILDMLCHWRYVLDNLFGEVKAVSCLGATHIPSRIDEQGRAYDCDTDDAAYATFELEGGIVAHINSSWAVRVRRDDLVTFQVDGTHGSAVAGLTKCWTQHRVNTPKPVWNPDQPQTIDFYRTWDEVPDTQAFDNGFKAQWEMFLRHVAEDGPWPHGLEAGAKGVQLAELGLKSWAERRWLDVPELEGHHHHHH,not soluble
2,MSLPRRPTSSAREGDGGKRSGHTFAAVEAIGRALPDVEVTTAWGQPALKVHGKMFVCVASHKSAEPNSLVVMMAFADRDALVEDDPATYYLRKHYLNHPCVLVRLTRIRLDALRDLVVGAHRLVNVQMRSKSDIGSQGTSRPLRDRREGHHHHHH,soluble
3,MSLPSERELGKELEVSRLTVRKAIQELEQKGILYKIQGKGTFVNDRKKAGEHGNKIGVISHLYKGVFMEILEGIEEGLESESYEYLLRNSQNDYKKEENIIQAMKEEGVSGFIISPVEDQKDSNVIFNLKAEGYPIVLIDRKLNYCETDCVLSDNIDGGFKATEYLIKLGHSRIAFLTYEFRKTSSVRDRIKGYRYALKLNQLELDERLLFSYNKDLSREEKNKILYNFIKENKPTAIIGVHNDVALDVVKMCRANNISIPEDISIICFDNTDIVRHLEVPLTTLVQDARKIGYDAAKLIVKKINSQEETGIMNQIYHPVKLIERNSCKSILQKNEGHHHHHH,soluble
4,MSLPTTIQAISAEAINLPLTEPFAIASGAQAVAANVLVKVQLADGTLGLGEAAPFPAVSGETQTGTSAAIERLQSHLLGADVRGWRKLAAMLDHAEHEAAAARCGLEMAMLDALTRHYHMPLHVFFGGVSKQLETDMTITAGDEVHAAASAKAILARGIKSIKVKTAGVDVAYDLARLRAIHQAAPTAPLIVDGNCGYDVERALAFCAACKAESIPMVLFEQPLPREDWAGMAQVTAQSGFAVAADESARSAHDVLRIAREGTASVINIKLMKAGVAEGLKMIAIAQAAGLGLMIGGMVESILAMSFSANLAAGNGGFDFIDLDTPLFIAEHPFIGGFAQTGGTLQLADVAGHGVNLEGHHHHHH,soluble
5,MSLQASEQVPSIQIGEPGVTVEAGDHICAFYPTLAERDEILLPYLSEGMLAGEKCIAVLDTDDLDGIRQAVSGQGLPSPKDGNQLELRRSRNAYLANGSFETEAMLKFWEDHVGAAVAEGFPFARVAGEMTWALSNLPGVDQLVGYEAKLNRLLPRYPQVVLCLYELERFDGEVLVDVLKTHPKVLLGGMVLDNPYYLEPEEFLASREGHHHHHH,soluble
6,MSLQDDDFSLFKSEMRGVKRISVDRADTGKPRNDRQQLKQRQLNASVRNDEIRVDGLSDQFVIDVGPEDELSWARDGVQESQLRKLKQGLVPFDGSLDLHGMSVEKARQTLWDFLAEATRLEIRCVRVTHGKAARKDGRSPLVKSHVNTWLRQHPQVLGFTSCLPRHGGTGSVYVMLRRTMLEGRDEEGHHHHHH,soluble
7,MSLQDVDFHIPFPSRRSPDFERARADHLSWPRALGLIGTDAAAERHSRGGYADLAARFYPSATGADLDLGVDLMSWFFLFDDLFDGPRGEDPQETRKLTDAVAAALDGPLPTSAPPIAHGFADVWRRTCQGMSPAWRARSARHWRNYFSGYVDEAVSRHLNTPYDSAGHYLAMRRQTIGVQPTVDLAERSCHCEVPQRVFDSAVLFAMLQIATDTNLILNDIASLEKEEARGELNNMVFILMREHGWTRGRSIAHMQDGVRTRLEQFLLLEACLPKVYDTFELTAQERESAEKYRMDGVRSVIRGSYDWHRSSGRYAADYAEGHHHHHH,soluble
8,MSLQEELSVLLKAQYPLIYLVTSEEERAEQAVYRIVQEVTRHQRLFVWTVTHGFREYGVAQQKTHHNTMSPEAAIEWVVRQEPGIFIFKDLHPFISSPAVTRWLREAIASFKGTEKAIILMSPYQETPIELEKDVVVLDFALPDLVTLDGVLGQQLGKSRHALGEDSREKLLKAALGLTKDEAEKVYRKAYVKAGQLTEGEVEIVLSEKKQMIRRNEGHHHHHH,soluble
9,MSLQHNELKTPYFMINEDKLIANLEKAKQLKEISGVKLVLALKCFSTWGVFDIIKPYLDGTTSSGPFEVKLGYETFGGETHAYSVGYSEDDVREVADICDKMIFNSQSQLAAYRHIVEGKASIGLRLNPGVSYAGQDLANPARKFSRLGVQADHIKPEVFEGIDGVMFHMNCENKDVDAFIGLLDAISEQFGEYLNKLDWVSMGGGVFFTWPGYDIEKLGLALKAFSEKHGVQMYLEPGEAIITKTTDLVVTVVDIVENVKKTAIVDSATEAHRLDTLIYNEPASILEASDNGEHEYVIGSCSCLAGDQFCVANFDQPLEIGQRLHILDSAGYTMVKLNWFNGLRMPSVYCERSSGEIQKLNEFDYSDFKRSLSEGHHHHHH,not soluble
10,MSLQLDLLPPQDRGQVHSVFVVVPRFNLTTLITMIETMRIGNYLSSERLFSWEVTSFDGLNLGASNGVRVHLDVEPDQTAPADQVFVLASWGGEHYQNKALASWLRKRARQGERICAVELGCYLVARAGLMDGKEATTHWSWINGFQEKFDQISVVEQLFTIDGRILTCAGGMAGVDLMLRLIEQSHGAGFSGEIADQMLHNEGHHHHHH,soluble
11,MSLQLKSEKARIILSGEPTLLIDKGKIDISALKSQRLNINDLMEELRLKNYFNVEDIEYAILETSGQISLIPKTHLTNATKEDLNLKVKQENVPITIILDGKVNTDNIKYLNKDADWLMKELKKNKIDSPKDVFLALIDSKGKFYYQKYNNEGHHHHHH,not soluble
12,MSLQPSKRYEIGISQTIGKNDRMQDTANVLGELFPNIDIIGIFDGHNGEEAARYCLISMKNEFNCLNPKDCEHQLPQIFESIHNNISSQTISGTTASICIIRSDDVVLAHVGDSPIYFYENGGKVINIKGVDRVNGQINLSRSLGDKLLQPPLTYKPDISIHSLSMKYIVIVTDGVTDSLSDSEMEIILSQPLSPDQIAATIRNNAFINGSVDNISVIVIQIIEGHHHHHH,soluble
13,MSLQSEKTEAVVTLGANLTKSERLQMLDAFGVKANEVKIIDVTNQDIREQLGLDTSKPIPASSQSISSSYVVVKDKGGINVTTNNLTEVTGSMLANALLTSGVNNADVKADAPFKVTGTAALAGILKGFEDASGEELSLPKKEAAREEISLTNNLSNAKTKDGQTLGKDEAAVVVNDIKTDVIKDKPKNDEEIGKIVNNVTNNYNILLTQGQQEQTIKFMSKINDLDYNYGAMKESLNQMNDKLQQILKDTGKQLEESGLLEKALNGIKNVLVDIKDFLVNMFSSASEKVKDGITYDENGNIVIKTGNNSDESKNEESIQDKPQTQSNDNNQNQENEQGQNQTKEGHHHHHH,not soluble
14,MSLQTAAAPTPAPVAAAPALPQGQVNIAVGSLKCKAEKCYGGLGEGIGDALTTALLNTGKFAVYERENTAQLTEEAFLNGGATFQGADVLIFGAITQYEPQASSGGLSFMGVSVGKKSSTIAMDLRIVDAKTRRIIGATQVQGKAEGNNFNVSGLLPVNVGAQSSPQLEAAISQMLNNAAQQLLLKVPASYYKEEGHHHHHH,soluble
15,MSLQTQDIIRRSGTNSLTPPPQVRDHQEPVAKLIDVTTCIGCKACQVACSEWNDIRDEVGHNVGVYDNPADLTAKSWTVMRFSEVEDEESGKLEWLIRKDGCMHCADPGCLKACPSEGAIIQYANGIVDFQSEHCIGCGYCIAGCPFDVPRMNKDDNRVYKCTLCVDRVGVGQEPACVKTCPTGAIHFGTKESMKEVAAGRVAELKTRGFDNAGLYDPAGVGGTHVMYVLHHADKPQLYHGLPENPTISPTVTFWKGIWKPLAAVGFAATFAASIFHYVGVGPNRVEEEEEDDETTDPTPSETVAKAPEQTTSERSDEGETRK,not soluble
16,MSLQTRPILVVGATGKTGSRVAAKLEAKGAAVRRGSRHAEIPFDWESPATWAPALSGVSRAYVTYFPDLAFPGAVEKLEAFTKVAAASGLDQIVLLSGRGEHHARLGEKVVETSGIPFTIVRAAWFAQNFSEGYLRDPVVAGVLPMPGGDIAEPIIDIDDIADVVVAALSEDGHAGQLYEVTGPRLMTFAEMAKVLSTATGRPIRHLPISFEDFHANVAAAGGEFVADVFTAIARETLDGRNAYVSDGVERALGRKPRDFAAFAAAAASQGLWTAAEGHHHHHH,soluble
17,MSLQVFGVSRSGYYNWVQHEPSDRKQSDERLKLEIKVAHIRTRETYGTRRLQTELAENGIIVGRDRLARLRKELRLRCKQKRKFRATTNSNHNLPVAPNLLNQTFAPTAPNQVWVADLTYVATQEGWLYLAGIKDVYTCEIVGYAMGERMTKELTGKALFMALRSQRPPAGLIHHSDRGSQYCAYDYRVIQEQFGLKTSMSRKGNCYDNAPMESFWGTLKNESLSHYRFNNRDEAISVIREYIEIFYNRQRRHSRLGNISPATFREKYHQMAAEGHHHHHH,not soluble
18,MSLRAELNQGLIDFLKASPTPFHATASLARRLEAAGYRRLDERDAWHTETGGRYYVTRNDSSLIAIRLGRRSPLESGFRLVGAHTDSPCLRVKPNPEIARNGFLQLGVEVYGGALFAPWFDRDLSLAGRVTFRANGKLESRLVDFRKAIAVIPNLAIHLNRAANEGWPINAQNELPPIIAQLAPGEAADFRLLLDEQLLREHGITADVVLDYELSFYDTQSAAVVGLNDEFIAGARLDNLLSCHAGLEALLNAEGDENCILVCTDHEEVGSCSHCGADGPFLEQVLRRLLPEGDAFSRAIQRSLLVSADNAHGVHPNYADRHDANHGPALNGGPVIKINSNQRYATNSETAGFFRHLCQDSEVPVQSFVTRSDMGCGSTIGPITASQVGVRTVDIGLPTFAMHSIRELAGSHDLAHLVKVLGAFYASSELEGHHHHHH,soluble
19,MSLRCLVTGATGYVGGRLVPELLDAGHRVRCLARSPDRLRDHPWAGKAEVVRGDVTDADSVARAMEGVDVAYYLVHALGSGDDFEATDRRAARTFAERAAAAGVRRIVYLGGLTPAGVPEGELSPHLRSRTEVGRILLASGVPTTVLRAAVVIGSGSASFEMLRYLTERLPVMVTPSWVHTRIQPVAVRDVLRALVGSATMPREVSRTFDVGGPDILTYREMMERYARVAELPRRLILPVPMLSPGLSSHWVGLVTPVPAAIARPLTESLRHEVVCGENDIVRYVPPPPGYPLGFDDALRLALQRVREARVTTRWSSASVPGAPSDPLPTDPDWAGGSLYTDDRALGVDAPPDALWRVVEGIGGDHGWYSFPLAWAVRGWLDRLVGGVGLRRGRRDAARLRVGDSLDFWRVEEIVPGRLLRLRAEMRLPGLAWLEMYAETDDAGRTRYRQRALFHPHGLAGHAYWWSVSPFHAVVFGGMARNIARAAARAAEGHHHHHH,not soluble
20,MSLRDLKTLLIVIDGVSYSVFNQFRYNLDTMNNLIENGSFGKLESVFPTITPVALASLFTGYLPLNHGITSTKIFIKGNSLSKPLSAHSSTPLKVDPIWYLLAKKGYKVVVASAPQALPDKWKLKNLTLFDPYKSKIKECSDGALLNIGNTTINEVNFDIESNNNEYTIKITDIENNTLSLKLRQNEWTSPLEVIMGCKGKEMKGTFRLKGLSNGVYLTPVSFLIPSWSNNQELQNEIWENVVKKYGMLLDGDYISLKSNIIGFSEYYETLKFAYEFFYNYSLYLLKREEWDFAITYLPIVDNIQHLLFGVDDSQSLDYVFQVYKMADNFVKAHIELADNIIICSDHGINKVKKRLYLNKFLEELNVLKTVDDKKIDWKRTKAYYGGGGIIRINLREREKFGIVGKKEFNKLIKYLTINLERLEDPDTGERIFTVIYSNETPASDRQGDIMIDGVNPKYSISSNIEKDTIFENVIPYRTTTADHGYYRNDDINGIIIFYGKNFTKKQVNMKIVDVTPTILKLYGINCKSDGKIVNEVFKNGHADSTKEGHHHHHH,not soluble
